According to US20220073643A1:

Target: Claudin18.2-His protein (human)
Test: indirect ELISA on coated Claudin18.2-His

| EC50 [ng/mL] | Binder |
| --- | --- |
| 119 | 201F4H6 (antibody, V domains shown) VH: QVQLKESGPGLVAPSQSLSITCTVSGFSLTSYGVSWVRQPPGKGLECLGVIWAGGNTNYNSALMSRLSISKDKSKSQVFLKMNSLQTDDTAMYYCARVYYGNAMDYWGQGTSVTVSS VL: DIVMTQSPSSLTVTAGEKVTMSCKSSQSLLNSGNQKSYLTWYQQRPGQPPKLLIYWASTRESGVPDRFTGSGSGTDFTLTISSVQAEDLAVYFCQNVYFFPFTFGSGTKLETK |
| 42.8 | 417A6F11 (antibody, V domains shown) VH: EVQLQQSGPELVKPGASMKISCKASGYSFTGYTMNWVKQSHGKNLEWIGLINPYNGGTSYNQKFKGKATLTVDKSSSTAYMELLSLTSEDSAVYYCARGDYWGQGTTLTVSS VL: DIVMTQSPSSLTVTAGEKVTMSCKSSQSLLNSGNQKNYLTWYQQKPGQPPKLLIYWASTRESGVPDRFTGSGSGTDFTLTISSVQAEDLAVYYCQNDYSYPTFGAGTKLELK |
| 10.5 | 200A4H8 (antibody, V domains shown) VH: QVQLKQSGPGLVQPSQSLSITCTVSGFSLTRYGVHWVRQSPGKGLEWLGVIWSGGNTDYNAAFISRLNIRKDNSKSQVFFKMNSLKPNDTAIYYCARAAYFGNSFDYWGQGTTLTVSS VL: DIVMTQSPSSLPVTAGEKVTMSCKSSQSLLNSGNQKNYLTWYQQKPGQPPKLLIYWASTRDSGVPDRFTGSGSGTDFTLTISSVQAEDLAVYYCQNNYIYPLTFGAGTKLELK |
| 3.46 | 413B1C9 (antibody, V domains shown) VH: DVQLVESGGGLVQPGGSRKLSCAASGFTFSSFGMHWVRQAPEKGLEWVAYISSGSSPIYYADTVKGRFTISRDNPKNTLFLQMTSLRSEDTAMYFCARFYYGNSFDHWGQGTLVTVSA VL: DIVMTQSPSSLTVTTGEKVSMSCKSSQSLFNRGNQKSYLTWYQQKPGQPPKLLIYWASTRESGVPDRFTGSGSGTDFTLTISSVQAEDLAVYYCQNNYIYPLTFGAGTKLELK |
| 6.31 | 412B6E4 (antibody, V domains shown) VH: DVQLVESGGGLVQPGGSRKLSCAASGFTFSSFGVHWVRQAPEKGLEWVAYISSGSSTIYYAHSVKGRFTISRDNPKNTLFLQMTSLGSEDTATYYCARFYYGNSFAYWGQGTLVTVSA VL: DIVMTQSPSSLTVTAGEKVTMSCKSSQSLLNSGNQKNYLTWYQQKPGQPPKMLIYWASTRESGVPDRFTGSGSGTDFTLTISSVQAEDLAVYYCQNAYTYPLTFGAGTRLELK |
| 6.53 | 419A10D4 (antibody, V domains shown) VH: DVQLVESGGGLVQPGGSRKLSCAASGFTFSGFGMHWIRQTPEKGLEWVAYISSGSRPIYYADTVKGRFTISRDNPKNTLFLQMTSLRSEDTAMYFCARFYYGNSFDHWGQGTLVTVSA VL: DIVMTQSPSFLTVTAGEKVTMSCKSSQSLLNSGNQRNYLTWYQQKPGQPPKLLIYWASTRESGVPDRFTGSGSGTDFTLTVSSVQAEDLALYYCQNAYSFPLTFGAGTKLELK |
| 9.45 | 411B4G4 (antibody, V domains shown) VH: DVQLVESGGGLVQPGGSRKLSCAASGFTFSGFGLHWIRQTPEKGLEWVAYISSGSRPIYYADTVKGRFTISRDNPKNTLFLQMTSLRSEDTAMYFCARFYYGNSFDHWGQGTLVTVSA VL: DIVMTQSPSFLTVTAGEKVTMSCRSSQSLLNSGNQRNYLTWYQQKPGQPPKLLIYWASTRESGVPDRFTGSGSGTDFTLTISSVQAEDLALYYCQNAYSFPLTFGAGTKLELK |
| 11.5 | 416F12F3 (antibody, V domains shown) VH: DVQLVESGGGLVQPGGSRKLSCAASGFTFSSFGMHWVRQAPEKGLEWVAYISSGSSTIYYAHSVKGRFTISRDNPKNTLFLQMTSLGSEDTAMYYCARFYYGNSFAYWGQGTLVTVSA VL: DIVMTQSPSSLTVTAGEKVTLSCKSSQSLLNSGNQKNYLTWYQQKPGQPPKMLIYWASTRESGVPDRFTGSGSGTDFTLTISSVQAEDLAVYYCQNAYTYPLTFGAGTRLELK |
| 6.82 | 413C12F8 (antibody, V domains shown) VH: DVQLVESGGGLVQPGGSRKLSCAASGFTFSGFGVHWIRQTPEKGLEWVAYIGSGSRPIYYADTVKGRFTISRDNPKNTLFLQMTSLRSEDTAMYFCARFYYGNSFDHWGQGTLVTVSA VL: DIVMTQSPSFLTVTAGEKVTMNCRSSQSLLNSGNQKNYLTWYQQRPGQPPKLLIYWASTRESGVPDRFTGSGSGTDFTLTISSVQAEDLALYYCQNAYSFPLTFGAGTKLELK |
| 8.87 | 418B8B10 (antibody, V domains shown) VH: DVQLVESGGGLVQPGGSRKLSCAASGFTFSSFGMHWVRQAPEKGLEWVAYISSGSSPIYYTDTVKGRFTISRDNPKNTLFLQMTSLRSEDTAMYFCARFYYGNSFDHWGQGTLVTVSA VL: DIVMTQSPSSLTVTAGEKVSMSCKSSQSLFNRGNQKSYLTWYQQRPGQPPKLLIYWASTRESGVPDRFTGSGSGTDFTLTISSVQAEDLAVYYCQNNYIYPLTFGAGTKLELK |
| 23.9 | 420D5H5 (antibody, V domains shown) VH: DVQLVESGGGLVQPGGSRKLSCAASGFTLSGFGMHWIRQTPEKGLEWVAYISSGSRPIYYVDTVEGRFTISRDNPKNTLFLQMTSLRSEDTAMYFCARFYYGNSFDHWGQGTLVTVSS VL: DIVMTQSPSFLTVTAGEKVTMSCKSSQSLLNSGNQKNYLTWYQQKPGQPPKLLIYWASTRESGVPDRFTGSGSGTDFTLTIRGVQAEDLALYYCQNAYSFPLTFGAGTKLELK |
| 11.6 | 414H6G2 (antibody, V domains shown) VH: DVQLVESGGGLVQPGGSRKLSCAASGFTFSGFGMHWIRQTAEKGLEWVAYISSGSRPIYYADTVQGRFTISRDNPKNTLFLQMTSLRSEDTAMYFCARFYYGNSFDHWGQGTLVTVSA VL: DIVMTQSPSFLTVTAGEKVTMSCKSSQSLLNSGNQKNYLTWYQQKPGQPPKLLIYWASTRESGVPDRFTGSGSGTDFTLTISSVQAEDLALYYCQNAYSFPLTFGAGTKLELK |
| 2.93 | 410H6H3 (antibody, V domains shown) VH: DVLLVESGGGLVQPGGSRKLSCAASGFTFSSSGMHWVRQAPEKGLEWVAYISSGSNTIYYADTLKGRFTISRDNPKNTLFLQMTSLRSEDTAMYYCARIYYGNSFVYWGQGTLVTVSA VL: DIVMTQSPSSLTVTAGEKVIMSCKSSQSLLNSGNQKNYLTWYQQKPGQPPKMLIYWASTRESGVPDRFRGSGSGTDFTLTISSVQAEDLAVYYCQNNYYYPLTFGTGTKLALK |
| 65.4 | 203A6C9 (antibody, V domains shown) VH: QVQLKQSGPGLVQPSQSLSITCTVSGFSLTRYGVHWVRQSPGKGLEWLGVIWSGGNTDYNAAFISRLNIRKDNSKSQVFFKMNSLKPNDTAIYYCARAAYFGNSFDYWGQGTTLTVSS VL: DIVMTQSPSSLPVTAGEKVTMSCKSSQSLLNSGNQKNYLTWYQQKPGQPPKLLIYWASTRDSGVPDRFTGSGSGTDFTLTISSVQAEDLAVYYCQNNYIYPLTFGAGTKLELK |
| 5.43 | 411G3E10 (antibody, V domains shown) VH: DVQLVESGGGLVQPGGSRKLSCAASGFTFSGFGMHWIRQTPEKGLEWVAYISSGSRPIYYADTVKGRFTISRDNPKNTLFLQMTSLRSEDTAMYFCARFYYGNSFDHWGQGTLVTVSA VL: DIVMTQSPSFLTVTAGEKVTMNCRSSQSLLNSGNQKNYLTWYQQKPGQPPKLLIYWASTRESGVPDRFTGSGSGTDFTLTISSVQAEDLALYYCQNAYSFPLTFGAGTKLELK |
| 7.75 | 409D1A7 (antibody, V domains shown) VH: DVQLVESGGGLVQPGGSRKLSCAASGFTFSGFGMHWIRQTPEKGLEWVAYISSGSRPIYYADTVKGRFTISRDNPKNTLFLHMTSLRSEDTAMYFCARFYYGNSFDHWGQGTLVTVSA VL: DIVMTQSPSFLTVTAGEKVTMNCKSSQSLLNSGNQRNYLTWYQQKPGQPPKLLIYWASTRESGVPDRFTGSGSGTDFTLTISSVQAEDLALYYCQNAYSFPLTFGAGTKLELN |
| 20.8 | 410A9A9 (antibody, V domains shown) VH: DVQLVESGGGLVQPGGSRKLSCAASGFTFSSFGMHWVRQAPEKGLEWVAYISSGSSPIYYADTVKGRFTISRDNPKNTLFLQMTSLRSEDTAMYFCATFYYGNSFAYWGQGTLVTVSA VL: DIVMTQSPSSLTVTAGEKVTMSCKSSQTLLNSGNQKNYLTWYQQKSGQPPKLLIYWASTRESGVPDRFTGSGSGTDFTLTISSVQAEDLAVYYCQNAYSYPVTFGSGTKVELK |
| 8.05 | 414A5F7 (antibody, V domains shown) VH: DVQLVESGGGLVQPGGSRKLSCAASGFTFSSFGMHWVRQAPEKGLEWVAYISSGSSPIYYADTVKGRFTISRDNPKNTLFLQMTSLRSEDTAMYFCARIYYGNSFAYWGQGTLVTVSA VL: DIVMTQSPSSLTVTAGEKVAMSCKSSQTLLNSGNQKNYLTWYQQKPGQPPKLLLYWASTRESGVPDRFTGSGSGTDFTLTISSVQAEDLAVYYCQNAYYYPLTFGSGTKLELK |
| 9.52 | 409G10G6 (antibody, V domains shown) VH: DVQLVESGGGLVQPGGSRKLSCAASGFTFSGFGMHWIRQTPEKGLEWVAYISSDSRPIYYADTVKGRFTISRDNPKNTLFLQMTSLRSEDTAMYFCGRFYYGNSFDHWGQGTLVTVSA VL: DIVMTQSPSFLTVTAGEKVTLSCRSSQSLLNSGNQRNYLTWYQQKPGQPPKLLIYWASTRESGVPDRFTGSGSGTDFTLTISSVQAEDRALYYCQNAYSFPLTFGTGTKLELR |
| 6.74 | 411A6E3 (antibody, V domains shown) VH: DVQLVESGGGLVQPGGSRKLSCAASGFTFSDFGMHWIRQTPEKGLEWVAYISSGSRPIYYADTVKGRFTISRDNPKNTLFLQMTSLRSEDTAMYFCVRFYFGNSFDHWGQGTLVTVSA VL: DIVMTQSPSFLTVTAGEKVTMTCRSSQNLLNSGNLKNYLTWYQQKPGQPPKLLISWASTRESGVPDRFTGSGSGTDFTLTISSVQPEDLALYYCQNAYSFPLTFGAGTKLELK |
| 17.6 | 420F12G8 (antibody, V domains shown) VH: DVQLVESGGGLVQPGGSRKLSCAASGFAFSGFGMHWIRQTPEKGLEWVAYISSGSRPIYYADTVKGRFTISRDNPKNTLFLQMTSLRSEDTAMYFCVRFYYGNSFDHWGQGTLVTVSA VL: DIVMTQSPSFLTVTAGEKVTMTCRSSQNLLNSGNQKNYLTWYQQKPGQPPKLLISWASTRESGVPDRFTGSGSGTDFTLTISSVQPEDLALYYCQNAYSFPFTFGAGTKLELK |
| 5.51 | 419A5F3 (antibody, V domains shown) VH: DVQLVESGGGLVQPGGSRKLSCAASGFTFSGFGMHWIRQTPEKGLEWVAYISSDSRPIYYADTVKGRFTISRDNPKNTLFLQMTSLRSEDTAMYFCGRFYYGNSFDHWGQGTLVTVSA VL: DIVMTQSPSFLTVTAGEKVTLSCRSSQSLLNSGNQRNYLTWYQQKPGQPPKLLIYWASTRESGVPDRFTGSGSGTDFTLTISSVQAEDRALYYCQNAYSFPLTFGTGTKLELR |
